# Test results taken from patent publication US20200024330A1.
# What was measured:
# Assay in all cases: cell-based or functional assay
# [1] = molecular target: HIV-1 92UG024 envelope glycoprotein (Env) on pseudovirus (HIV-1)
# [2] = molecular target: HIV-1 MGRM-D-001 envelope glycoprotein (Env) on pseudovirus (HIV-1)
# [3] = molecular target: HIV-1 92TH021 envelope glycoprotein (Env) on pseudovirus (HIV-1)
# [4] = molecular target: HIV-1 92UG005 envelope glycoprotein (Env) on pseudovirus (HIV-1)
# [5] = molecular target: HIV-1 CMU02 envelope glycoprotein (Env) on pseudovirus (HIV-1)
# [6] = molecular target: aMLV envelope protein on pseudovirus (negative control virus)
# [7] = molecular target: HIV-1 MGRM-D-018 envelope glycoprotein (Env) on pseudovirus (HIV-1)
# [8] = molecular target: HIV-1 MGRM-AG-005 envelope glycoprotein (Env) on pseudovirus (HIV-1)
# [9] = molecular target: HIV-1 Env of isolate MG RM-A-005 (pseudovirus) (HIV-1)
# [10] = molecular target: HIV-1 92BR020 envelope glycoprotein (Env) on pseudovirus (HIV-1)
# [11] = molecular target: HIV-1 Env of isolate 92UG005 (subtype D), on pseudovirus (HIV-1)
# [12] = molecular target: HIV-1 Env of isolate MGRM-AE-005 (pseudovirus) (HIV-1)
# [13] = molecular target: HIV-1 Env of isolate 6535.3 (HIV-1)
# [14] = molecular target: HIV-1 92RW020 envelope glycoprotein (Env) on pseudovirus (HIV-1)
# [15] = molecular target: HIV-1 Env of isolate MGRM-D-005 (subtype D), on pseudovirus (HIV-1)
# [16] = molecular target: HIV-1 Env of isolate MGRM-D-004 (subtype D), on pseudovirus (HIV-1)
# [17] = molecular target: HIV-1 Env of isolate 92TH021 (pseudovirus) (HIV-1)
# [18] = molecular target: HIV-1 Env of isolate CMU02 (pseudovirus) (HIV-1)
# [19] = molecular target: HIV-1 Env of isolate APV_6 (HIV-1)
# [20] = molecular target: HIV-1 Env of isolate 92WR021 (pseudovirus) (HIV-1)
# [21] = molecular target: HIV-1 Env of isolate 98CN009 (subtype CRF07_BC), on pseudovirus (HIV-1)
# [22] = molecular target: HIV-1 Env of isolate 92BR020 (HIV-1)
# [23] = molecular target: HIV-1 Env of isolate VLGCA1 (pseudovirus) (HIV-1)
# [24] = molecular target: HIV-1 Env of isolate MGRM-AE-004 (pseudovirus) (HIV-1)
# [25] = molecular target: HIV-1 Env of isolate MG RM-A-014 (pseudovirus) (HIV-1)
# [26] = molecular target: HIV-1 Env of isolate MG RM-A-012 (pseudovirus) (HIV-1)
# [27] = molecular target: HIV-1 Env of isolate 92RW008 (clade A), on pseudovirus (HIV-1)
# [28] = molecular target: HIV-1 Env of isolate MGRM-D-001 (subtype D), on pseudovirus (HIV-1)
# [29] = molecular target: HIV-1 Env of isolate 92WR020 (pseudovirus) (HIV-1)
# [30] = molecular target: HIV-1 Env of isolate MG RM-A-013 (pseudovirus) (HIV-1)
# [31] = molecular target: HIV-1 Env of isolate MGRM-Chronic-B-004 (HIV-1)
# [32] = molecular target: HIV-1 Env of isolate 93UG077 (pseudovirus) (HIV-1)
# [33] = molecular target: HIV-1 Env of isolate 94 KE 105 (pseudovirus) (HIV-1)
# [34] = molecular target: HIV-1 Env of isolate 92WR024 (pseudovirus) (HIV-1)
# [35] = molecular target: HIV-1 Env of isolate 92UG114 (subtype D), on pseudovirus (HIV-1)
# [36] = molecular target: HIV-1 Env of isolate MGRM-AE-006 (pseudovirus) (HIV-1)
# [37] = molecular target: HIV-1 Env of isolate MGRM-AE-002 (pseudovirus) (HIV-1)
# [38] = molecular target: HIV-1 Env of isolate MGRM-D-002 (subtype D), on pseudovirus (HIV-1)
# [39] = molecular target: HIV-1 Env of isolate MGRM-D-003 (subtype D), on pseudovirus (HIV-1)
# [40] = molecular target: HIV-1 Env of isolate MG RM-A-008 (pseudovirus) (HIV-1)
# [41] = molecular target: HIV-1 Env of isolate MG RM-A-011 (pseudovirus) (HIV-1)
# [42] = molecular target: HIV-1 Env of isolate 92UG037 (pseudovirus) (HIV-1)
# [43] = molecular target: HIV-1 Env of isolate MGRM-Chronic-B-002 (HIV-1)
# [44] = molecular target: HIV-1 Env of isolate MGRM-Chronic-B-003 (HIV-1)
# [45] = molecular target: HIV-1 Env of isolate MGRM-D-008 (subtype D), on pseudovirus (HIV-1)
# [46] = molecular target: HIV-1 Env of isolate MGRM-Chronic-B-008 (HIV-1)
# [47] = molecular target: HIV-1 Env of isolate MG RM-A-009 (pseudovirus) (HIV-1)
# [48] = molecular target: HIV-1 Env of isolate 93WR029 (pseudovirus) (HIV-1)
# [49] = molecular target: HIV-1 Env of isolate MG RM-A-007 (pseudovirus) (HIV-1)
# [50] = molecular target: HIV-1 Env of isolate 92RW009 (clade A), on pseudovirus (HIV-1)
# [51] = molecular target: HIV-1 Env of isolate MGRM-AE-001 (pseudovirus) (HIV-1)
# [52] = molecular target: HIV-1 Env of isolate 92UG031 (pseudovirus) (HIV-1)
# [53] = molecular target: HIV-1 Env of isolate MG RM-A-010 (pseudovirus) (HIV-1)
# [54] = molecular target: HIV-1 Env of isolate 98CN006 (subtype CRF08 BC), on pseudovirus (HIV-1)
# [55] = molecular target: HIV-1 Env of isolate MG RM-A-006 (pseudovirus) (HIV-1)
# [56] = molecular target: HIV-1 Env of isolate 92UG046 (subtype D), on pseudovirus (HIV-1)
# [57] = molecular target: HIV-1 Env of isolate CAAN.A2 (HIV-1)
# [58] = molecular target: HIV-1 Env of isolate JRFL (HIV-1)
# [59] = molecular target: HIV-1 Env of isolate 93TH305 (HIV-1)
# [60] = molecular target: HIV-1 Env of isolate APV_17 (HIV-1)
# [61] = molecular target: HIV-1 Env of isolate MGRM-AE-003 (pseudovirus) (HIV-1)
# [62] = molecular target: HIV-1 Env of isolate APV_13 (HIV-1)
# [63] = molecular target: HIV-1 Env of isolate 94UG103 (pseudovirus) (HIV-1)
# [64] = molecular target: HIV-1 Env of isolate 92UG024 (subtype D), on pseudovirus (HIV-1)
# [65] = molecular target: HIV-1 Env of isolate 92WR026 (pseudovirus) (HIV-1)
# [66] = molecular target: HIV-1 Env of isolate MGRM-Chronic-B-001 (HIV-1)
# [67] = molecular target: HIV-1 Env of isolate 92UG001 (subtype D), on pseudovirus (HIV-1)
# Sequence of 4995_E20 (PGT-142) (antibody) (VH): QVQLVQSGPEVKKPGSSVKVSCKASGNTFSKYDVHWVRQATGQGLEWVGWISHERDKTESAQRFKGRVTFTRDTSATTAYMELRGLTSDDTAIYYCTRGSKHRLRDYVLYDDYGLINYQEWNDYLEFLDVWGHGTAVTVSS
# Sequence of 4995_E20 (PGT-142) (antibody) (VL): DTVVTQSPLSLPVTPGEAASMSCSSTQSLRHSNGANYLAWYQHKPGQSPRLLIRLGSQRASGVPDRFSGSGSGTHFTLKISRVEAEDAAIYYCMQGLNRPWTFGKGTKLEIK
substance,measurement,setting,value
PGT-122 monoclonal antibody,"IC50, pseudovirus neutralization",[1],> 10 µg/mL
same,"IC50, pseudovirus neutralization",[2],0.867 µg/mL
same,"IC50, pseudovirus neutralization",[3],> 10 µg/mL
same,"IC50, pseudovirus neutralization",[4],> 10 µg/mL
same,"IC50, pseudovirus neutralization",[5],> 10 µg/mL
same,"IC50, pseudovirus neutralization",[6],> 10 µg/mL
same,"IC50, pseudovirus neutralization",[7],0.0115 µg/mL
same,"IC50, pseudovirus neutralization",[8],> 10 µg/mL
4995_E20 (PGT-142) (antibody),"IC50 (µg/mL), pseudovirus neutralization",[9],9.7 µg/mL
same,"IC50 (ug/ml), neutralizing activity",[10],> 10 µg/mL
same,"IC50, pseudovirus neutralization",[11],> 50 µg/mL
same,"IC50 (µg/mL), pseudovirus neutralization",[12],> 50 µg/mL
same,IC50,[13],> 50 µg/mL
same,"IC50 (ug/ml), neutralizing activity",[14],> 10 µg/mL
same,"IC50, pseudovirus neutralization",[15],1.15 µg/mL
same,"IC50, pseudovirus neutralization",[16],> 50 µg/mL
same,"IC50 (µg/mL), pseudovirus neutralization",[17],0.002 µg/mL
same,"IC50 (µg/mL), pseudovirus neutralization",[18],> 50 µg/mL
same,IC50,[19],4.72 µg/mL
same,"IC50 (µg/mL), pseudovirus neutralization",[20],> 50 µg/mL
same,"IC50, pseudovirus neutralization",[21],4 µg/mL
same,IC50,[22],15.1 µg/mL
same,"IC50 (µg/mL), pseudovirus neutralization",[23],2.75 µg/mL
same,"IC50 (µg/mL), pseudovirus neutralization",[24],0.001 µg/mL
same,"IC50 (µg/mL), pseudovirus neutralization",[25],0.367 µg/mL
same,"IC50 (µg/mL), pseudovirus neutralization",[26],> 50 µg/mL
same,"IC50, single-round pseudovirus neutralization",[27],0.447 µg/mL
same,"IC50, pseudovirus neutralization",[28],> 50 µg/mL
same,"IC50 (µg/mL), pseudovirus neutralization",[29],31.5 µg/mL
same,"IC50 (µg/mL), pseudovirus neutralization",[30],3.77 µg/mL
same,IC50,[31],0.172 µg/mL
same,"IC50 (µg/mL), pseudovirus neutralization",[32],> 50 µg/mL
same,"IC50 (µg/mL), pseudovirus neutralization",[33],0.19 µg/mL
same,"IC50 (µg/mL), pseudovirus neutralization",[34],0.069 µg/mL
same,"IC50, pseudovirus neutralization",[35],> 50 µg/mL
same,"IC50 (µg/mL), pseudovirus neutralization",[36],> 50 µg/mL
same,"IC50 (µg/mL), pseudovirus neutralization",[37],> 50 µg/mL
same,"IC50, pseudovirus neutralization",[38],> 50 µg/mL
same,"IC50, pseudovirus neutralization",[39],> 50 µg/mL
same,"IC50 (µg/mL), pseudovirus neutralization",[40],> 50 µg/mL
same,"IC50 (µg/mL), pseudovirus neutralization",[41],> 50 µg/mL
same,"IC50 (µg/mL), pseudovirus neutralization",[42],0.557 µg/mL
same,IC50,[43],> 50 µg/mL
same,IC50,[44],0.484 µg/mL
same,"IC50, pseudovirus neutralization",[45],0.174 µg/mL
same,IC50,[46],> 50 µg/mL
same,"IC50 (µg/mL), pseudovirus neutralization",[47],0.058 µg/mL
same,"IC50 (µg/mL), pseudovirus neutralization",[48],0.014 µg/mL
same,"IC50 (µg/mL), pseudovirus neutralization",[49],> 50 µg/mL
same,"IC50, single-round pseudovirus neutralization",[50],0.006 µg/mL
same,"IC50 (µg/mL), pseudovirus neutralization",[51],> 50 µg/mL
same,"IC50 (µg/mL), pseudovirus neutralization",[52],0.05 µg/mL
same,"IC50 (µg/mL), pseudovirus neutralization",[53],0.015 µg/mL
same,"IC50, pseudovirus neutralization",[54],> 50 µg/mL
same,"IC50 (µg/mL), pseudovirus neutralization",[55],> 50 µg/mL
same,"IC50, pseudovirus neutralization",[56],> 50 µg/mL
same,IC50,[57],> 50 µg/mL
same,IC50,[58],> 50 µg/mL
same,IC50,[59],5.86 µg/mL
same,IC50,[60],0.628 µg/mL
same,"IC50 (µg/mL), pseudovirus neutralization",[61],> 50 µg/mL
same,IC50,[62],> 50 µg/mL
same,"IC50 (µg/mL), pseudovirus neutralization",[63],> 50 µg/mL
same,"IC50, pseudovirus neutralization",[64],> 50 µg/mL
same,"IC50 (µg/mL), pseudovirus neutralization",[65],1.78 µg/mL
same,IC50,[66],> 50 µg/mL
same,"IC50, pseudovirus neutralization",[67],> 50 µg/mL
PGT-121 monoclonal antibody,"IC50, pseudovirus neutralization",[1],> 10 µg/mL
same,"IC50, pseudovirus neutralization",[3],> 10 µg/mL
same,"IC50, pseudovirus neutralization",[4],> 10 µg/mL
same,"IC50, pseudovirus neutralization",[5],> 10 µg/mL
same,"IC50, pseudovirus neutralization",[6],> 10 µg/mL
